This note sets out measurements from article PMC6908968 (Cell, 2019).

The target of test [1] is EBOV GP ectodomain residues 1-636 (GPec) (Zaire ebolavirus, strain  …, UniProt Q05320).
Test [2] concerns the target T1, thermolysin-cleaved EBOV GP on Jurkat-GP cells (cleaved GP) (Zaire ebolavirus, Makona (GP1 core …, strain)).
T1 chain 1: not shown
T1 chain 2: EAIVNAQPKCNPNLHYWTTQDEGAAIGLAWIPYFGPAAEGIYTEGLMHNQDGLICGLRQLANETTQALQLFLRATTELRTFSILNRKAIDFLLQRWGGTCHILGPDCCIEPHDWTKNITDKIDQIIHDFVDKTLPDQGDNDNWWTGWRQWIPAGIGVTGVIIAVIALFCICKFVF

B1: 5.6.c2824 (antibody, V domains shown)
VH: QVQLQESGPGLVKPSGTLSLTCAVSGGSISSNSWWSWVRQPPGKGLEWIGDMYHSGSTNYNPSLKSRVTISVDKSKNQFSLKLSSVTAADTAVYYCARARHDDSNTFLWFVYGMDVWGQGTTVTVSS
VL: DIQMTQSPSSLSASVGDRVTITCRTSQSISSYLNWYQQKPGKAPKLLIYAASSLQSGVPSRFSGSGSGTDFTLTISTLQPEDFATYFCQQSYSTPRTFGQGTKLEIK
B1: the binding result in test [1] and in test [2] was “binds” throughout.

B2: 5.6.c2995 (antibody, V domains shown)
VH: QVQLVESGGGVVQPGRSLRLSCAASGFSFSTYGMYWVRQAPGKGLEWVGVIWYDGSEKYHADFVKGRFTMSRDNSKNTLYLQMNSLRVEDTAVYYCARDLRPSTNSWYGYYYNAMDVWGQGTTVTVSS
VL: QSVLTQPPSVSAAPGQRVTISCSGNSSNIGNNFVSWYQQLPGTAPKLLIYDNNSRPSGIPDRFSGSKSGTSATLGISGLQTGDEADYYCGSWDGSLSLWVFGGGTKLTVL
As for B2, the binding result in test [1] and in test [2] was “binds” in each case.

B3: 5.6.c2957 (antibody, V domains shown)
VH: QVRMVQSGAEVKKPGSSVKVSCKTSGGTFSTYSISWVRQAPGHGLEWMGRLIPMLGTPNYAQKFQGRLTITADRSTSTAYMELSSLSSEDTAVYYCARDLGTVLTPGDSWGQGTLVTVSS
VL: DIQMTQSPSSLSASVGDRVTITCRASQGISNYLAWFQQKPGEAPKSLIYAASSLQSGVPSKFSGSGSGTDFTLTISNLQPEDFATYYCQQYNSYPLTFGGGTKVEIK
On to B3, for which the binding result in test [1] and in test [2] was “binds” throughout.

B4: 5.6.c2828 (antibody, V domains shown)
VH: EVQLVQSGAEVKKPGESLRISCKGSGYSFTKYWISWVRQMPGKGLEWMGRIDPSDSSTNYSPSFQGHVTISDDKSTSIVYLQWSSLKASDTAMYYCARHSWVQNSAYDPQMISYDHYYGMDVWGQGTTVTVSS
VL: ENVLTQSPGTLSLSPGERATLSCRASQSVSSSYLAWYQQKPGQAPRLLIYGASSRATGIPDRFSGSGSGTDFTLTISRLEPGDFAVYYCHQYGSSPLTFGQGTRLEMK
As for B4, the binding result in test [1] and in test [2] was “binds” throughout.

B5: 5.6.c2762 (antibody, V domains shown)
VH: QLQLQESGPGLVRPSETLSLTCTVSGGSINTNVYYWGWIRQPPGKGLEWIGTIHYSGSTYYNPSVKSRVTISVDTSTNQFSLRLNSLTAADTAVYYCARLAYGSGWAGWFDPWGQGTLVTVSS
VL: SSELTQDPAVSVALGQTVRITCQGDSLRVYYATWYQQKPGQAPVLVIYAKNSRPSGIPDRFSGSSSGNTASLTITGTQAEDEADYYCNSRDSSGKVWVFGGGTKLTVL
B5: the binding result in test [1] and in test [2] was “binds” throughout.

B6: 5.6.c2931 (antibody, V domains shown)
VH: QLQLQESGPGLVKPSQTLSLTCTVAGGSISRSSYYWGWIRQSPGKGLEWIGSIHYSGSTHYNSSLRSRVTISVDTSKNQFSLNLTSVTAADTAVYYCVRQSSVPYFDWSSPGQIDPWGQGTLVTVSS
VL: QLVLTQSPSASASLGASVKFTCTLSSGHRSYAIAWHQQQPEKGPRYLMKINSDGSHNKGDGIPDRFSGSSSGDERYLTISSLQSEDEADYYCQTWGTGIQVFGGGTKLTVL
As to B6, the binding result in test [1] and in test [2] was “binds” throughout.

B7: 5.6.c2725 (antibody, V domains shown)
VH: QVQLQESGPGLVKPSQTLSLTCTVSGGSISSGGYYWSWIRQHPGKGLEWIGYIYYSGSTYYNPSLKSRVSISAGTSKNQFSLKLSSVTAADTAVYYCARAYCGGDCYSLLYYYYGMDVWGQGTTVTVSS
VL: QSALTQPASVSGSPGQSITISCTGTSSDVGGYNSVSWYQQHPGKAPKLMIYDVSNRPSGVSDRFSGSKSGNTASLTISGLQAEDEADYYCSSYTSSSTLVFGGGTKLTVL
For the molecule B7, the binding result in test [1] and in test [2] was “binds” in each case.

B8: 5.6.c2913 (antibody, V domains shown)
VH: DVQLVESGGGLVQPGGSLRLSCVASGLTFSRDWMTWVRQAPGKGLEWVANIKQDGSEKYYLDSVKGRFTISRDNSNNALYLQMSSLRGEDTAVYYCARLHGGGFSDSDLFYYDFAMDVWGQGTTVTVSA
VL: EIVMTQSPATLSVSPGERATLSCRASQSVINNLAWYQQKPGQAPRLLIYGASTRATGIPARFSGSGSGTEFTLTISNLQSEDFAVYYCQQYNNWPPLTFGGGTQVEIK
For B8, the binding result in test [1] and in test [2] was “binds” throughout.

B9: 5.6.c3013 (antibody, V domains shown)
VH: QVQLVQSGAEVKKPGASVKVSCKASGYTFTKYGISWMRQAPGQGLEWMGWISAYNGDTNYAQKLHGRLTMTTDTSTSTVYMELRSLRSDDTAIYYCARDLGELSSLKFYGMDVWGQGTTVTVSS
VL: DIQLTQSPSFLSASVGDRVTITCRASQGISSFLAWYQQKPGKAPKILVYGASTLQSGVPSRFSGSGSGTEFTLTISSLQPEDFATYYCQQVNTFPFTFGPGTQVDFK
With B9, the binding result in test [1] and in test [2] was “binds” throughout.

B10: 5.6.c2801 (antibody, V domains shown)
VH: EVQLVESGGGLVQPGGSLRLSCAASGFTFSTYWMSWVRQAPGKGLEWVANIKEDGSEKYYVDSVKGRFTISRDNGKNSLYLQMNSLRAEETAVYYCARDVPGDTVLGDAFHIWGQGTMVTVSS
VL: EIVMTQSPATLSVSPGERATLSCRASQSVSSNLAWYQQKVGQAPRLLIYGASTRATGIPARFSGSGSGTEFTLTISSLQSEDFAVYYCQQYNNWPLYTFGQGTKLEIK
As to B10, the binding result in test [1] and in test [2] was “binds” throughout.

B11: 5.6.c2886 (antibody, V domains shown)
VH: QVQLQESGPGLVKPSQTLSLTCTVSGGSISSGDYYWSWIRQHPGKGLEYIGYIYYSGSTFHNPSLKSRVTISIDTSKNQFSLKLSSVTAADTAVYYCARDSGSEIIMGAYGMDVWGQGTTVTVSS
VL: DIQMTQSPSSVSASVGDRVTITCRASQGISWLAWYQQKPGKAPKLLIYAASSLQSGVPSRFSGSGSGTDFTLTISSLQPEDFATYYCQQANSFPWTFGQGTKVEIK
As for B11, the binding result in test [1] and in test [2] was “binds” in each case.

B12: 5.6.c2798 (antibody, V domains shown)
VH: QVQLQESGPGLVKPSETLSLTCTVSGGSISPDYWTWIRQPPGKGLEWIGFIYYAGGTDYNPSLKSRVTMSIDTSKKQFFLKLNSVTAADTAVYYCASGVPEDNSQILYYYYGMDVWGPGTTVTVSS
VL: QSVLTQPPSVSAAPGQKVTISCSGSSPNIGNNYVSWYQQLPGTAPKLLIYDNNKRPSGIPDRFSGSKSGTSATLGITGLQTGDEADYYCGTWDRSLSAYVFGTGTKVTVL
In the case of B12, the binding result in test [1] and in test [2] was “binds” each time.

B13: 5.6.c2972 (antibody, V domains shown)
VH: QVQLQESGPGLVKPSQTLSLTCAVSGGSIRSDDNYWSWIRQPPGKGLEWIGYIYHRGSTYYNPSLKNRVKISVDTSKNQFSLKLSSVTAADTAVYYCARDRIQVVPDGIVHYYYGMDVWGQGTTVTVSS
VL: QSVLTQPPSVSAAPGQKVTISCSGSSSNIGNNYVSWYQQLPGTAPKLLIYDNNKRPSGIPDRFSGSKSGTSATLGITGLQTGDEADYYCGTWDNNLSAWVFGGGTKLTVL
On to B13, for which the binding result in test [1] and in test [2] was “binds” each time.

B14: 5.6.c2961 (antibody, V domains shown)
VH: QVQLQESGPGLVKPSQTLSLTCTVSGDSISSGDYYWNWIRHHPGKGLEWLGYIYYSGSSDYNPSLKSRVTISVDTSKNHFSLKLSSVTAADTAIYYCARGSVSVLFGELDVWGQGTTVTVSS
VL: EIVLTQSPGTLSLSPGERATLSCRASQSVSNNFLAWYQQIRGQAPRLLIYGVSHRATGIPDRFSGSGSGTDFTLTISGLEPEDFALYYCQQYGRSPYTFGQGTRLEIK
As for B14, the binding result in test [1] and in test [2] was “binds” throughout.

B15: 5.6.c2773 (antibody, V domains shown)
VH: QVELQESGPGLVKPSGTLSLTCTVSGGSISSYHWSWIRQPPGKGLEWIAYMYYSGSTNYNPSLKSRVTTSVETSKNQLSLKVSSVTAADTAVYYCARIVGDEIFFYGLDVWGQGTTVTVSS
VL: DIQMTQSPSSVSASVGDRVTITCRASQDISILLAWYQQKPGKAPKLLIYAASSLQSGVPSRFSGSGSGTDFTLTISSLQPEDFATYYCQQANSFPWTFAQGTKVEIK
Take B15: the binding result in test [1] and in test [2] was “binds” in each case.

B16: 5.6.c2998 (antibody, V domains shown)
VH: EVQLVESGGGVVQPGGSLRLSCAASGFTFDDYAMHWVRQAPGKGLEWVSIITGDGGSRNYADSVKGRFTISRDNNKNSLYLQMNSLRSEDTALYYCAKEGGPDSSTFYYYGMDVWGQGTTVTVSS
VL: DIQMTQSPSSVSASVGDRVTITCRASQDVSSWLAWYRQKPGRAPELLIYAASSLQSGVPSRFSGSGSGTDFTLTISSLQPEDFASYYCLQANSIPWTFGQGTKVEIK
For the molecule B16, the binding result in test [1] and in test [2] was “binds” in each case.

B17: 5.6.c3014 (antibody, V domains shown)
VH: QVQLVESGGGVVQPGRSLRLSCAASGFSFNSYGMHWVRQAPGKGLEWVAIIWYDGSDKYYADSVKGRFTISRDNSKNTLSLQMNSLRVEDSAVYYCARDPGHPSDLYYYYGMDVWGQGTTVTVSS
VL: DIQMTQSPSSVSASVGDRVTITCRASQDISYWLAWYQQKPGKAPKLLIYSASSLQSGVPSRFSGSGSGTDFTLTISSLQPEDFATYYCQQTHTFPITFGQGTRLEIK
For B17, the binding result in test [1] and in test [2] was “binds” throughout.

B18: 5.6.c2866 (antibody, V domains shown)
VH: QVQLVQSGAEVKKPGSSVKVSCKASGGTLSSYAISWVRQAPGQGLEWMGRIIPTLGMANYSQNFQGRVTITADKSTSTAYMELSSLRSEDTAVYYCARDPPPGYGDLFYYYSMDVWGQGTTVTVST
VL: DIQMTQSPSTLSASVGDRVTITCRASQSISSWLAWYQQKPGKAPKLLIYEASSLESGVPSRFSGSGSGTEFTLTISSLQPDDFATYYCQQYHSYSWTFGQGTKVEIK
Regarding B18, the binding result in test [1] and in test [2] was “binds” in each case.

B19: 5.6.c2954 (antibody, V domains shown)
VH: QAQLQESGPGLVKPSQTLSLTCTVSGGFSSSGGFFWSWIRQHPGKDLEWIGYIYSSGSPYYKPSLKSRVTISIDTSKNQFSLRLSSVTAADTAIYYCARGRGEMLTGYFDYWGQGKLVTVSS
VL: SYVLTQPPSVSVAPGKTASITCGGNNIGSKSVHWYQQRPGQAPVLVIYYDTDRPSGIPERFSGSNSGNTATLTISRVEAGDEADYYCQVWDSSSDPLLFGGGTKLTVL
With B19, the binding result in test [1] and in test [2] was “binds” throughout.
